{"source": "FireProtDB (doi:10.1021/acs.biochem.5b01204)", "parents": {"B1": {"name": "Sliding clamp, P04525 (parent)", "chain": "MKLSKDTTALLKNFATINSGIMLKSGQFIMTRAVNGTTYAEANISDVIDFDVAIYDLNGFLGILSLVNDDAEISQSEDGNIKIADARSTIFWPAADPSTVVAPNKPIPFPVASAVTEIKAEDLQQLLRVSRGLQIDTIAITVKEGKIVINGFNKVEDSALTRVKYSLTLGDYDGENTFNFIINMANMKMQPGNYKLLLWAKGKQGAAKFEGEHANYVVALEADSTHDF"}}}
{"variants_of": "B1", "details": "Enterobacteria phage T4; pH 7.4; 25 °C; Urea; CD; Sodium Phosphate Buffer; transition: 3; structure 1CZD; whole UniProt chain shown", "units": {"denaturant midpoint (higher = more stable)": "M"}}
{"variant": "MKLSKDTTALLKNFATINSGIMLKSGQFIMTRAVNGTTYAEANISDVIDFDVAIYDLNGFLGILSLVNDDAEISQSEDGNIKIADARSTIFWPAADPSTVVAPNKPIPFPVASAVTEIKAEDLQQLLRVSRGLQIDTIAITVKEGKIVINGFNKVEDSALTRVKYSLTLGDYDGENTFNFIINMANMKMQPGNYKLLLFAKGKQGAAKFEGEHANYVVALEADSTHDF", "note": "[W199F]", "denaturant midpoint (higher = more stable)": 1.9}
{"variants_of": "B1", "details": "Enterobacteria phage T4; pH 7.4; 25 °C; Urea; CD; Sodium Phosphate Buffer; structure 1CZD; whole UniProt chain shown", "units": {"denaturant midpoint (higher = more stable)": "M"}}
{"variant": "MKLSKDTTALLKNFATINSGIMLKSGQFIMTRAVNGTTYAEANISDVIDFDVAIYDLNGFLGILSLVNDDAEISQSEDGNIKIADARSTIFFPAADPSTVVAPNKPIPFPVASAVTEIKAEDLQQLLRVSRGLQIDTIAITVKEGKIVINGFNKVEDSALTRVKYSLTLGDYDGENTFNFIINMANMKMQPGNYKLLLWAKGKQGAAKFEGEHANYVVALEADSTHDF", "note": "[W92F]", "denaturant midpoint (higher = more stable)": 2}
